Source: PMC6191436

Biological target: FLAG-cyclin B1 (UniProt P14635)
Assay: co-IP; MCF7 cells transfected with Myc-BRCA1-Δ11 and FLAG-cyclin B1, synchronised (aphidicolin 0.3 μM 24 h, release 8 h, nocodazole 100 ng/mL 24 h, release 2 h), without or with irradiation (10 Gy); anti-FLAG antibody-conjugated agarose; Western blot with anti-Myc

Chain of Myc-BRCA1-Δ11 (P38398 whole entry, stated change not applied): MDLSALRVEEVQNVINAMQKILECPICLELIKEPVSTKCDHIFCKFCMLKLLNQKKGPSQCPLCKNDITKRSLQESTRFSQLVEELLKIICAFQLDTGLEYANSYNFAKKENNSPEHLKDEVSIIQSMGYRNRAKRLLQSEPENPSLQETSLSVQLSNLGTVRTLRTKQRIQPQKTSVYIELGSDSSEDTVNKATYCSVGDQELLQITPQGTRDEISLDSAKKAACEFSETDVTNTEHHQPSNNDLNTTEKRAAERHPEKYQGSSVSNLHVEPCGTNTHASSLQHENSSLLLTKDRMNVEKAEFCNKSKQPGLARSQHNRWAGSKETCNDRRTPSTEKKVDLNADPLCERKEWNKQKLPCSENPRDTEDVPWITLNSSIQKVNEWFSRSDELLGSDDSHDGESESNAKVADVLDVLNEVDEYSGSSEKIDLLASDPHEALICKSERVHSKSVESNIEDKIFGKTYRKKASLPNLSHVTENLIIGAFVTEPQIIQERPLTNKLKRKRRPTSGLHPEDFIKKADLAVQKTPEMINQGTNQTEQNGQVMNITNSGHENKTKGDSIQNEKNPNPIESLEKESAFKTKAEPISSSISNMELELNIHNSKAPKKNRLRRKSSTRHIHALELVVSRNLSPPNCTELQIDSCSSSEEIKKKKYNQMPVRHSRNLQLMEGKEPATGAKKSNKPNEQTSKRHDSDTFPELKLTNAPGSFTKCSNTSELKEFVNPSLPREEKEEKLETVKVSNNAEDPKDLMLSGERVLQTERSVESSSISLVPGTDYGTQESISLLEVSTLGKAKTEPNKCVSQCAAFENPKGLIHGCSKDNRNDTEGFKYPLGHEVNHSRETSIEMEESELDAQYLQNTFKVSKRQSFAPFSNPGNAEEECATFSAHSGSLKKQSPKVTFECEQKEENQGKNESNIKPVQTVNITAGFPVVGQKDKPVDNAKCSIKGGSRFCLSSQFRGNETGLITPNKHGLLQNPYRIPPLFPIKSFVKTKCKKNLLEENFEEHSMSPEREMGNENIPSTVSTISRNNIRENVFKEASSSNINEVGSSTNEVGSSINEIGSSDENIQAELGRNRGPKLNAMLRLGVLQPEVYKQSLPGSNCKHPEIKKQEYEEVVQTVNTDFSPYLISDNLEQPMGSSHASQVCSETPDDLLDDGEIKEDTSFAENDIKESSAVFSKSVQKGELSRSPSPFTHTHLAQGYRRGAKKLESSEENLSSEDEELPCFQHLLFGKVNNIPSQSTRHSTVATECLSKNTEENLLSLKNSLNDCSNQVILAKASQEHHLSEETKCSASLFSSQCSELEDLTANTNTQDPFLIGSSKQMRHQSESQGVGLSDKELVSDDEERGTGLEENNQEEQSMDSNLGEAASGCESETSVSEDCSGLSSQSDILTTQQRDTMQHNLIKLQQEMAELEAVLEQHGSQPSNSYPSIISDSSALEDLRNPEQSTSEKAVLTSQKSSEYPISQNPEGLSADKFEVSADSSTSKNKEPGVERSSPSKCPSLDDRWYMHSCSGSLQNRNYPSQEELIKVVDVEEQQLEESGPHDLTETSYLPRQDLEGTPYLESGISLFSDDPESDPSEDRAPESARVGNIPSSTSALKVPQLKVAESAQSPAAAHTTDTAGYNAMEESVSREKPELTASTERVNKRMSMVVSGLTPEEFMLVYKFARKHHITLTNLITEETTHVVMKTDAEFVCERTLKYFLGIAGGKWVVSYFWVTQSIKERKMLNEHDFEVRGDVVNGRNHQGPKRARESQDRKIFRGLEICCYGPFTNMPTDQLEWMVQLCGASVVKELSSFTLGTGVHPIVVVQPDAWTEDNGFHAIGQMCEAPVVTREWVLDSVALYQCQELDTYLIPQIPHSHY
Chain of FLAG-cyclin B1 (P14635 whole entry): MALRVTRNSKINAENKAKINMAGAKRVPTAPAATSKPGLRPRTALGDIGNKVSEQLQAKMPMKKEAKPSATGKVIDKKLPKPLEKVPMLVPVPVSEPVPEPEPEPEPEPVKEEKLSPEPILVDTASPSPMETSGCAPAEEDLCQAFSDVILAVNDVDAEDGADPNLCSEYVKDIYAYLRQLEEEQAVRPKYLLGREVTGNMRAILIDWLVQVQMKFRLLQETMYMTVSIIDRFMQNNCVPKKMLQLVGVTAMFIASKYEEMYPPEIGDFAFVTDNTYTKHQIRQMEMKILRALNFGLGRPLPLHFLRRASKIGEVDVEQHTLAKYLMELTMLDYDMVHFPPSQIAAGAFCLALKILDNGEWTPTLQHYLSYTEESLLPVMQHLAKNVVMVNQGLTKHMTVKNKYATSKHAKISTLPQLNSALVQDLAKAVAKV

“Myc-BRCA1-Δ11 (from UniProt P38398-5 1-721) (natural protein)” was tested, and the interaction upon irradiation relative to no irradiation (nocodazole-treated cells) was 214%.
